Laboratory results reported in article PMC10797482, “The Interaction between Collagen 1 and High Mannose Type CD133 Up‐Regulates Glutamine Transporter SLC1A5 to Promote the Tumorigenesis of Glioblastoma Stem Cells” (Advanced Science, 2023).
Each block holds one binder with its values, some of them ahead of it.

Molecular target: T1, His-COL1A1(972-1206) (human, UniProt P02452 972-1206)
T1 construct: also called COL1 (in the in vitro pull-downs); source: HEK293F, transfected (PEI), purified from the supernatants (Nickel Beads)
Test: pull-down; GST pull-down: 10 µg purified GST fusion protein with GST-beads incubated with His-COL1A1(972-1206) protein 1 h at 4 °C; washed three times with RIPA (1% Triton X-100, 50 mM Tris pH 7.4, 150 mM NaCl, 2 mM EDTA); blot with anti-His antibody
Settings: both partners purified

T1 sequence (P02452 972-1206): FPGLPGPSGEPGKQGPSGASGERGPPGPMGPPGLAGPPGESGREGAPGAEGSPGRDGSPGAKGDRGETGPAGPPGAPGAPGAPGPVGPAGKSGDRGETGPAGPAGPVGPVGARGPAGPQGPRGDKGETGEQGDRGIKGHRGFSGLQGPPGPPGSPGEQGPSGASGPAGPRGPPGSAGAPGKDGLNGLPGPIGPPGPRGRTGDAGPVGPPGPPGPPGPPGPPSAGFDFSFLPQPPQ

binding result: binds
B1: GST-CD133 N-terminal segment (amino acids 43–81) (domain or fragment, human, UniProt O43490 43-81, looked up)
chain: TQDSHKAGPIGILFELVHIFLYVVQPRDFPEDTLRKFLQ
notes: source: E. coli BL21, purified (Glutathione-Superflow Resin)

binding result: binds
B2: GST-CD133(20-108) (domain or fragment, human, UniProt O43490 20-108, looked up)
chain: GGQPSSTDAPKAWNYELPATNYETQDSHKAGPIGILFELVHIFLYVVQPRDFPEDTLRKFLQKAYESKIDYDKPETVILGLKIVYYEAG
notes: source: E. coli BL21(DE3), purified (Glutathione-Superflow Resin)
